The text below walks through data of article PMC6821365.

Changes are numbered by the printed parent chain.

Holding throughout (assay): ITC
In data set [1] the target is T1, yedK W68A (Escherichia coli (gene from BL21 …, UniProt P76318 2-222, W68A)).
T1 sequence: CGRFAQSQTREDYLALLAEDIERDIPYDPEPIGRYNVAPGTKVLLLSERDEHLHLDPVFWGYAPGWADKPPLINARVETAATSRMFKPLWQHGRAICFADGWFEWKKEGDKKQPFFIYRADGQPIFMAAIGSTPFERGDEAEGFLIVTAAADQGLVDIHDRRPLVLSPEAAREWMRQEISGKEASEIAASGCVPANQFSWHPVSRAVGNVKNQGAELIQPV

The target of data set [2] is T2, yedK E105A (Escherichia coli (gene from BL21 …, UniProt P76318 2-222, E105A)).
T2 sequence: T1 sequence with A67W, E104A

Data set [3] has as its target T3, yedK R77A (Escherichia coli (gene from BL21 …, UniProt P76318 2-222, R77A)).
T3 sequence: T1 sequence with A67W, R76A

Data set [4] addresses T4, yedK T80A (Escherichia coli (gene from BL21 …, UniProt P76318 2-222, T80A)).
T4 sequence: T1 sequence with A67W, T79A

In data set [5] the target is T5, yedK S84A (Escherichia coli (gene from BL21 …, UniProt P76318 2-222, S84A)).
T5 sequence: T1 sequence with A67W, S83A

In data set [6] the target is T6, yedK P40G (Escherichia coli (gene from BL21 …, UniProt P76318 2-222, P40G)).
T6 sequence: T1 sequence with P39G, A67W

In data set [7] the target is T7, yedK H160A (Escherichia coli (gene from BL21 …, UniProt P76318 2-222, H160A)).
T7 sequence: T1 sequence with A67W, H159A

Data set [8] deals with T8, yedK N75A (Escherichia coli (gene from BL21 …, UniProt P76318 2-222, N75A)).
T8 sequence: T1 sequence with A67W, N74A

For orientation: Kd means a measure of binding affinity in units of concentration. Read a high Kd as weaker binding. Take CGGTCGATTC (ssDNA) [ssDNA]: the binding result in data set [1] and in data set [3] was “no binding” in each case. For the same molecule, the Kd in data set [2] turned out to be 0.12 µM; in data set [4] it was 12.6 µM; in data set [5] it was 10.8 µM; in data set [6] it was 10.8 µM; in data set [7], 1.4 µM; in data set [8] it was 37.9 µM.
